Results: the supplement of paper PMC9112550, “Optimization of the antimicrobial peptide Bac7 by deep mutational scanning” (BMC Biology, 2022)

test system: Escherichia coli TOP10; test: shrunken log2 fold change of peptide-encoding DNA abundance (4.5 h post-induction vs induction); higher = less antimicrobial activity (less host growth inhibition); settings: time post-induction: 4.5 h; library: site-saturation at positions 5, 18, 19, 20
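Note: peptides expressed intracellularly from a pBAD plasmid library in pooled LB shake-flask culture, induced with 0.3% L-arabinose, DNA abundance read by NGS, three biological replicates, DESeq2 with apeglm shrinkage.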

Sequence	shrunken log2 fold change
RRIRSRPPRLPRPRPRPIVDPRP	0.115
RRIRVRPPRLPRPRPRPDMRPRP	-0.437
RRIRARPPRLPRPRPRPWQDPRP	0.0326
RRIRWRPPRLPRPRPRPIVDPRP	-0.0254
RRIRTRPPRLPRPRPRPWDKPRP	-0.0249
RRIRNRPPRLPRPRPRPKCYPRP	-0.0478
RRIRYRPPRLPRPRPRPQHKPRP	-0.547
RRIRFRPPRLPRPRPRPHVQPRP	-0.0901
RRIRWRPPRLPRPRPRPNWAPRP	-0.0835
RRIRERPPRLPRPRPRPGSAPRP	0.151
RRIRSRPPRLPRPRPRPVGWPRP	0.839
RRIRPRPPRLPRPRPRPTIWPRP	0.349
RRIRGRPPRLPRPRPRPSVTPRP	0.708
RRIRSRPPRLPRPRPRPQLFPRP	0.309
RRIRARPPRLPRPRPRPRMKPRP	0.457
RRIRPRPPRLPRPRPRPVNMPRP	0.0158
RRIRIRPPRLPRPRPRPHGIPRP	-0.0115
RRIRNRPPRLPRPRPRPARGPRP	0.86
RRIRRRPPRLPRPRPRPVQPPRP	0.669
RRIRIRPPRLPRPRPRPPHNPRP	-0.521
RRIRHRPPRLPRPRPRPYIIPRP	-0.855
RRIRGRPPRLPRPRPRPKIQPRP	0.369
RRIRCRPPRLPRPRPRPSIGPRP	-0.098
RRIRTRPPRLPRPRPRPVHYPRP	0.0226
RRIRYRPPRLPRPRPRPMHWPRP	-0.597

Sequence	shrunken log2 fold change
RRIRKRPPRLPRPRPRPAQDPRP	0.679
RRIRRRPPRLPRPRPRPIMCPRP	0.0545
RRIRNRPPRLPRPRPRPCGVPRP	-0.00664
RRIRFRPPRLPRPRPRPSYTPRP	-0.771
RRIRTRPPRLPRPRPRPTHTPRP	0.0425
RRIRQRPPRLPRPRPRPMYYPRP	0.0048
RRIRERPPRLPRPRPRPKCLPRP	-0.0209
RRIRFRPPRLPRPRPRPNLWPRP	0.031
RRIRCRPPRLPRPRPRPWMYPRP	-0.0169
RRIRHRPPRLPRPRPRPVSWPRP	0.442
RRIRMRPPRLPRPRPRPIREPRP	0.425
RRIRDRPPRLPRPRPRPQHLPRP	-0.444
RRIRPRPPRLPRPRPRPHPVPRP	0.151
RRIRHRPPRLPRPRPRPWGEPRP	-0.0132
RRIRKRPPRLPRPRPRPIKRPRP	0.0734
RRIRPRPPRLPRPRPRPANGPRP	0.0748
RRIRCRPPRLPRPRPRPRSIPRP	-0.0603
RRIRGRPPRLPRPRPRPRAVPRP	1
RRIRARPPRLPRPRPRPNEYPRP	-0.284
RRIRTRPPRLPRPRPRPETPPRP	0.493
RRIRKRPPRLPRPRPRPCVPPRP	-0.14
RRIRHRPPRLPRPRPRPKFCPRP	-0.132
RRIRSRPPRLPRPRPRPFQQPRP	0.000179
RRIRSRPPRLPRPRPRPEYNPRP	-0.229
RRIRHRPPRLPRPRPRPNAVPRP	0.0142

Sequence	shrunken log2 fold change
RRIRTRPPRLPRPRPRPKPTPRP	0.0943
RRIRYRPPRLPRPRPRPITWPRP	-0.353
RRIRHRPPRLPRPRPRPDVTPRP	-0.0437
RRIRARPPRLPRPRPRPQAPPRP	0.238
RRIRGRPPRLPRPRPRPMWSPRP	0.89
RRIRHRPPRLPRPRPRPKFKPRP	0.0646
RRIRERPPRLPRPRPRPPDRPRP	-0.00621
RRIRVRPPRLPRPRPRPEMQPRP	0.175
RRIRMRPPRLPRPRPRPPTMPRP	0.271
RRIRLRPPRLPRPRPRPNVRPRP	-0.00281
RRIRDRPPRLPRPRPRPSYEPRP	0.175
RRIRPRPPRLPRPRPRPRCKPRP	0.215
RRIRKRPPRLPRPRPRPLCIPRP	-0.0466
RRIRRRPPRLPRPRPRPCQYPRP	-0.137
RRIRDRPPRLPRPRPRPEPCPRP	0.064
RRIRMRPPRLPRPRPRPEETPRP	0.0205
RRIRNRPPRLPRPRPRPFGCPRP	-0.128
RRIRYRPPRLPRPRPRPSGFPRP	-0.99
RRIRNRPPRLPRPRPRPYMFPRP	-0.216
RRIRNRPPRLPRPRPRPGWDPRP	-0.00506
RRIRFRPPRLPRPRPRPCRGPRP	-0.106
RRIRKRPPRLPRPRPRPPRWPRP	1.07
RRIRCRPPRLPRPRPRPLCWPRP	0.132
RRIRVRPPRLPRPRPRPDQFPRP	-0.0568
RRIRPRPPRLPRPRPRPYCGPRP	-0.148
